{"source": "paper PMC9410875", "about": "“FOXL2 and FOXA1 cooperatively assemble on the TP53 promoter in alternative dimer configurations”", "binders": {"B1": {"name": "DBE2 DNA 16 bp (dsDNA)", "DNA 1": "CAAAATGTAAACAAGT", "DNA 2": "ACTTGTTTACATTTTG"}, "B2": {"name": "p53-DNA 16 bp (dsDNA)", "DNA 1": "AAATATTTATTATCGA", "DNA 2": "TCGATAATAAATATTT"}, "B3": {"name": "TP53-DNA, 32P probe (dsDNA)", "DNA 1": "CCCTCATTCAAAAAATATTTATTATCGAGCTCTTACT", "DNA 2": "AGTAAGAGCTCGATAATAAATATTTTTTGAATGAGGG"}, "B4": {"name": "p53 mut2 16 bp (ITC) (dsDNA)", "DNA 1": "AAATATTTATCCCTCA", "DNA 2": "TGAGGGATAAATATTT"}, "B5": {"name": "p53-DNA 26 bp (S0) (dsDNA)", "DNA 1": "TCAAAAAATATTTATTATCGAGCTCT", "DNA 2": "AGAGCTCGATAATAAATATTTTTTGA"}}, "key": {"FOXL2-DBD [1]": {"target": "T1, FOXL2-DBD (Homo sapiens, UniProt P58012 52-148)", "T1 sequence": "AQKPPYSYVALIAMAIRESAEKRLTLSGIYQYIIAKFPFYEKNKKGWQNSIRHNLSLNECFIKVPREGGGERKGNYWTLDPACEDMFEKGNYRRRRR", "test": "ITC; 1:1 stoichiometry; 10 mM MgCl2, 298 K; ITC: 20 mM HEPES pH 7.5, 150 mM NaCl, 10 mM MgCl2, 298 K. EMSA: 2.5 uM DNA, 20 mM HEPES pH 7.5, 50 mM KCl, 10 mM MgCl2, 1 mM DTT, 10% glycerol, on ice 30 min; FOXA1 EMSA: 20 mM Tris-HCl pH 8.0, 0.1 mg/ml BSA, 50 uM ZnCl2, 100 mM KCl, 2 mM beta-mercaptoethanol, 10% glycerol (50 mM EDTA for Mg2+ depletion)", "details": "protein: recombinant; tags: GST tag cleaved by TEV; blunt"}, "FOXA1-DBD": {"target": "T2, FOXA1-DBD (UniProt P55317 168-264)", "T2 sequence": "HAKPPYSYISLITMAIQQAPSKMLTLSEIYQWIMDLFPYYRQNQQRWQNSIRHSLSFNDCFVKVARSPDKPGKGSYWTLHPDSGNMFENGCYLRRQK", "test": "X-ray crystallography; 2:1, 2.1 A; Mg2+ at dimer interface; ITC: 20 mM HEPES pH 7.5, 150 mM NaCl, 10 mM MgCl2, 298 K. EMSA: 2.5 uM DNA, 20 mM HEPES pH 7.5, 50 mM KCl, 10 mM MgCl2, 1 mM DTT, 10% glycerol, on ice 30 min; FOXA1 EMSA: 20 mM Tris-HCl pH 8.0, 0.1 mg/ml BSA, 50 uM ZnCl2, 100 mM KCl, 2 mM beta-mercaptoethanol, 10% glycerol (50 mM EDTA for Mg2+ depletion)", "details": "protein: recombinant; tags: GST tag cleaved by TEV; chain copies: 2; blunt"}, "FOXL2-DBD [2]": {"target": "T1, FOXL2-DBD", "test": "ITC; 2:1 stoichiometry, biphasic; Kd values not in the text; ITC: 20 mM HEPES pH 7.5, 150 mM NaCl, 10 mM MgCl2, 298 K. EMSA: 2.5 uM DNA, 20 mM HEPES pH 7.5, 50 mM KCl, 10 mM MgCl2, 1 mM DTT, 10% glycerol, on ice 30 min; FOXA1 EMSA: 20 mM Tris-HCl pH 8.0, 0.1 mg/ml BSA, 50 uM ZnCl2, 100 mM KCl, 2 mM beta-mercaptoethanol, 10% glycerol (50 mM EDTA for Mg2+ depletion)", "details": "protein: recombinant; tags: GST tag cleaved by TEV; blunt"}, "FOXL2 full-length": {"target": "T3, FOXL2 full-length (UniProt P58012 1-376)", "T3 sequence": "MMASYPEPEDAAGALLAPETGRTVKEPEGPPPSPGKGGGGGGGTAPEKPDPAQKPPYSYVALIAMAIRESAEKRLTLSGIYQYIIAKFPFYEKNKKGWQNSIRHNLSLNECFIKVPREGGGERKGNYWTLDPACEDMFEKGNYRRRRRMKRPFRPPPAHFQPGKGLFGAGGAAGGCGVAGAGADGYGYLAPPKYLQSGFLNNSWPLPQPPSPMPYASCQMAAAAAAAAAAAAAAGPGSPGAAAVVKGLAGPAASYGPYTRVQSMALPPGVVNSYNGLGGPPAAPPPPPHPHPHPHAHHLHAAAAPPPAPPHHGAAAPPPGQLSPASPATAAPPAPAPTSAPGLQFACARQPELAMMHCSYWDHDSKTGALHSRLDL", "test": "EMSA; 1 or 10 ug protein; ITC: 20 mM HEPES pH 7.5, 150 mM NaCl, 10 mM MgCl2, 298 K. EMSA: 2.5 uM DNA, 20 mM HEPES pH 7.5, 50 mM KCl, 10 mM MgCl2, 1 mM DTT, 10% glycerol, on ice 30 min; FOXA1 EMSA: 20 mM Tris-HCl pH 8.0, 0.1 mg/ml BSA, 50 uM ZnCl2, 100 mM KCl, 2 mM beta-mercaptoethanol, 10% glycerol (50 mM EDTA for Mg2+ depletion)", "details": "protein: recombinant; label: 32P"}, "FOXL2-DBD [3]": {"target": "T1, FOXL2-DBD", "test": "ITC; 1:1 one-site curve; biphasic pattern lost; ITC: 20 mM HEPES pH 7.5, 150 mM NaCl, 10 mM MgCl2, 298 K. EMSA: 2.5 uM DNA, 20 mM HEPES pH 7.5, 50 mM KCl, 10 mM MgCl2, 1 mM DTT, 10% glycerol, on ice 30 min; FOXA1 EMSA: 20 mM Tris-HCl pH 8.0, 0.1 mg/ml BSA, 50 uM ZnCl2, 100 mM KCl, 2 mM beta-mercaptoethanol, 10% glycerol (50 mM EDTA for Mg2+ depletion)", "details": "protein: recombinant; tags: GST tag cleaved by TEV; blunt"}, "FOXA1-DBD S177A": {"target": "T4, FOXA1-DBD S177A (UniProt P55317 168-264, S177A)", "T4 sequence": "T2 sequence with S10A", "test": "EMSA; little change vs wild type; ITC: 20 mM HEPES pH 7.5, 150 mM NaCl, 10 mM MgCl2, 298 K. EMSA: 2.5 uM DNA, 20 mM HEPES pH 7.5, 50 mM KCl, 10 mM MgCl2, 1 mM DTT, 10% glycerol, on ice 30 min; FOXA1 EMSA: 20 mM Tris-HCl pH 8.0, 0.1 mg/ml BSA, 50 uM ZnCl2, 100 mM KCl, 2 mM beta-mercaptoethanol, 10% glycerol (50 mM EDTA for Mg2+ depletion)", "details": "protein: recombinant; label: 5' Cy3 on strand 1 (legends say Cy5); blunt"}}, "note": "Where a chain is given by its changes, count along the chain named.", "data": [{"binder": "B1", "values": [{"measurement": "Kd", "setting": "FOXL2-DBD [1]", "value": "790 ± 100", "unit": "nM"}]}, {"binder": "B2", "values": [{"measurement": "binding result", "setting": "FOXA1-DBD", "value": "binds"}, {"measurement": "binding result", "setting": "FOXL2-DBD [2]", "value": "binds"}]}, {"binder": "B3", "values": [{"measurement": "binding result", "setting": "FOXL2 full-length", "value": "binds"}]}, {"binder": "B4", "values": [{"measurement": "binding result", "setting": "FOXL2-DBD [3]", "value": "binds"}]}, {"binder": "B5", "values": [{"measurement": "binding result", "setting": "FOXA1-DBD S177A", "value": "binds"}]}]}
